Test results as given in patent CN108178799A (SHENZHEN INNOVA NANOBODI CO LTD, dated 2018).

These binders were tested against T1, CA125抗原 (purified from ascites of ovarian cancer patients) (human (ascites of ovarian cancer …, UniProt Q8WXI7 1-14451)) (assay: SPR, Biacore T100, 1:1 binding fit).
T1 construct: Natural shed antigen, heterogeneous fragments; also called CA125糖类抗原

| Binder | Kd |
| --- | --- |
| 纳米抗体VHH-CA125-2H7 (VHH, Alpaca VHH expressed from pMES4 in E. coli BL21(DE3) periplasm; not shown: residues and tag from the pMES4 vector (protein purified on Ni-NTA / IMAC)) VHH: ESGGGLVQAGGSLRLSCERSDAPHSPYTMGWFRQAPGKDREFVATITWSGGTTLYADSVKGRFTISRGIAKNTAYLQMNTLKPEDTAVYYCAVGLGGGAYREDHQYDYWGQGT | 0.718 nM |
| 纳米抗体VHH-CA125-4C1 (VHH, Alpaca VHH expressed from pMES4 in E. coli BL21(DE3) periplasm; not shown: residues and tag from the pMES4 vector (protein purified on Ni-NTA / IMAC)) VHH: ESGGGLVQAGGSLRLSCAASGNTFNINAMGWYRQAPGKQRELVATITSGGSTNYADSVKGRFTISRDNAKNTVFLQMNSLKPEDTAVYYCNAVQTRLPNSPDRYEYDYWGQGT | 0.635 nM |
| 纳米抗体VHH-CA125-4H10 (VHH, Alpaca VHH expressed from pMES4 in E. coli BL21(DE3) periplasm; not shown: residues and tag from the pMES4 vector (protein purified on Ni-NTA / IMAC)) VHH: ESGGGLVQPGGSLRLSCAASEFTLEHYAIGWFRQAPGKEREGVGCISSSQENTYVEDSAKGRFTISRDNVKNTVYLQMNSLKPEDTAVYYCAARRFGLCVISPGYFEVWGQGT | 0.285 nM |
